Experimental data taken from the nanobody polyreactivity screen of Harvey et al. (2022).

Experiment: yeast display, Sf9 membrane polyspecificity reagent, FACS + sequencing; frameworks hold sequencing errors
Method in brief: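 Nanobodies came from a synthetic yeast display library in Saccharomyces cerevisiae BJ5465, induced with galactose for 36–48 hours and stained for 1 hour at 4 °C with 10% biotinylated, detergent-solubilized Sf9 membrane reagent. Cells were enriched on streptavidin microbeads and then FACS-sorted, with low and high (top ~1%) gates set on anti-HA fluorescence for expression and streptavidin fluorescence for reagent binding. Each polyreactivity label reflects the gate a clone came from. Genes were amplified by colony PCR, sequenced by MiSeq 2 × 250 and filtered by CDR length.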

Row | Sequence | polyreactivity (PSR sort gate)
1 | QVQLVESGGGLVQAGGSLRLSCAATGINFRAYAMGWYRQAPGKERELVAAISSGGNTNYADSVKGRFTISRDNAKNTVYLQMNSLKPEDTAVYYCAAGYFWGRIKYYYWGQGTQVTVSS | high polyreactivity
2 | QVQLVESGGGLVQAGGSLRLSCAASGRTFGANAMGWYRQAPGKERELVAAISSSDDSTYYADSVKGRFTISRDNAKNTVYLQMNSLKPEDTAVYYCAAEDVYPQLDYWGQGTQVTVSS | low polyreactivity
3 | QVQLVESGGGLVQAGGSLRLSCAASGRTFISNAMGWYRQAPGKERELVAAITSTGGRTYYADSVKGRFTISRDNAKNTVYLQMNSLKPEDTAVYYCNTGKRRFYSMDYWGQGTQVTVSS | high polyreactivity
4 | QVQLVESGGGLVQAGGSLRLSCAASGRIFNRYAMGWYRQAPGKERELVAAITSGGDTNYADSVKGRFTISRDNAKNTVYLQMNSLKPEDTAVYYCNARSRGRASGYDYWGQGTQVTVSS | high polyreactivity
5 | QVQLVESGGGLVQAGGSLRLSCAASGFTFYPYAMGWYRQAPGKERELVASISSRGGSRTYYADSVKGRFTISRVNEKNTVYLQMNSLKTEDSAVYYCAATYVGLYRGYFTLTYYYWGQGTPVTVSS | high polyreactivity
6 | QVQLVESGGGLVQAGGSLRLSCAASGRTFGYNAMGWYRQAPGKERELVAAITWSGGSTYYADSVKGRFTISRDNAKNTVYLQMNSLKPEDTAVYYCNAYQRLSRAYGYWGQGTQVTVSS | high polyreactivity
7 | QVQLVESGGGLVQAGGSLRLSCAASAIIFYKNAMGWYRQAPGKERELVAAITRGGSTNYADSVKGRFTISRDNAKNTVYLQMNSLKPEDTAVYYCDKRWFYTRYPTYDYWGQGTQVTVSS | low polyreactivity
8 | QVQLVESGGGLVQAGGSLRLSCAASGFIFARNAMGRYRQDTGKERELVAVISTRGRTYYADSVKGRFTISRDNSKNTVYLQMNSLKPEDTAVYYCNADKVIGYDYWGQCTQVTVSS | high polyreactivity
9 | QVHLVESGGGLVQAGGSLRLSCAASGSTFSIYAMGWYRQAPGKERELVAAINSGGDTNYADSVKGRFTISRDNAKNTVYLQMNSLKPEDTAVYYCAKQVYTSRRSRGRYGFGYWGQGTQVTVSS | high polyreactivity
10 | QVQLVESGGVLVQAGGSLRLSCAASGRIIDLNAMGWYREAPGKQRDFVAGITDGGSTYYADSVKGRFTISRDNAKNTVYLQMNSLKPEDTAVDYCAADVYDYLSEFQAFVEEAGYYWGQGTQVTVSS | low polyreactivity
11 | QVQLVESGGGLVQAGGSLRLSCAASGSTFYPNAMGWYRQAPGKERELVAAISRGTRTKYADSVKGRFTISRDNAKNTVYLQMNSLKPEDTAVYYCAADTGTGLDWGQGTQVNVSS | high polyreactivity
12 | QVQLVESGGGLVQAGGSLRLSCAASGSIFWPYAMGWYRQAPGKEREFVATISSSGSRTHYADSVKGRFTISRDNAKNTVSLQMNSLKPEDTAVYYCNADNPYSDGADSLGNYWGQGTQVTVSS | low polyreactivity
13 | QVQLVESGGGLVQAGGSLRLSCAASGSIFERNAMGWYRQAPGKERELVAVITGSGGSTYYADSVKGRFTISRDNAKNTVYLQMNSLKPEDTAVYYCAAPVHTASGRWVPGYYYWGQGTQVTVSS | high polyreactivity
14 | QVQLGESGGGLVQAGGSLRLSCAASGRIFRYYAMGWYRQAPGKERELVAAISSSGGSTYYADSVKGRFTISRDNAKNTVYLQMNSLKPEDTAVYYCNTVGSVGKKRDYWGQGTQVTVSS | high polyreactivity
15 | QGQLVESGGGLVQAGGSLRLSCAASGRIFVIYAMGWYRQAPGKERELVAAISSRGGTTYYADSVKGRFTISRDNAKNTVYLQMNSLKPEDTAGYYCNVARFYHIYDYWGQGTHVTVSS | high polyreactivity
16 | QVQVVESGGGLVQEGGSLRLSCAASGSTFGINAMGWYRPAPGKEREWVAAITSTGRTYYADSVKGRFTNSRDNAKNTVYLQMNSLKPEDTAVYYCAAVWRYKGLLLPSYYYWGQGTQVTVSS | high polyreactivity
17 | QVQLVDSGGGLVQAGGSLRLSCASSGRIFTKYSMGLYRQAPGKERELVAGISGSGTITYYADSVKGRFTISRDNAKNTVYLQMNSLKPVDSAVYYCNAGRVTNRTPRYDYWGQGTQVSVSS | high polyreactivity
18 | QVQLVESGGGLVQAGGSLRLSCAASGRIFGPYAMGWYRQAPGKERELVAAISQRGGTTYYADSVKGRFTISRDNAKNTVYLQMNSLKPEDTAVYYCAAKTYGWGQGTQVTVSS | high polyreactivity
19 | QVQLVESGGGLVQAGGSLRLSCAASGLTFYPYAMGWYRQAPGKERELVAAITRSGTSTFYADSVKGRFTISRDNAKNTVYLQMNSLKPEETAVYYCAKGYFFVGTDWESYYWGQGTQVTVSS | low polyreactivity
20 | QVQLVESGGGLVQAGGSLRLSCAASGFIFGLNAMGWYRPAPGKERELVAAISYNGGSTYYADSVKGRFTISRDNAKNTVYLQMNSLKPEDTAVDYCNAYLYRKVGYRAYDYWGHGTQVTVSS | low polyreactivity
21 | QVQLVESGGGLVQAGGSLRLSCAASGRIIYKNAMGWYRQAPGKETELVAAINSSGGSTYYGDSVKGRFTISRDNAKNTVYLQMNCLKPEDSAVYYCAAYDYGRFGKLNYWGQGSQVTVSS | low polyreactivity
22 | QVQLVESGGVLVQAGGSLRLSCAASGNAMGWYRQAPGKERELVAAITRRGGSTYYADSVKGRFTISRDNAKNTVYLQINSLIPEDTAVYYCAADNPSYNLWYGYWGQGTQVTVSS | low polyreactivity

Row | Sequence | polyreactivity (PSR sort gate)
23 | QVQLVESGGGLVQAGGSLRVSCADSGGIFALNDMGWYRQAPGKERELVAAINGAGTYYADSVKGRFTISRDNAKNTVYLQRNSLKPEDTAVYYCARGSLHWEYARTWTRVEYDYWGQGTQVTVSS | low polyreactivity
24 | QVQLVESGGGLVQAGGSLRISCAASGGIFIRNAMGWYRQAPGKERELFATISNAGSTYADSVKGRFTISRDNAKNTVYLQMNSLKPEDTAVYYCNRVDWTYPVSQGLQEYDYRGQGTQVTVSS | low polyreactivity
25 | QVQLVESGGGLVQAGGSLRLSCAASGFIISPYARGWYRQAPGKETELVAAISWSGVSTYYADSVKGRFTMSRDNAKNTVYLQMNSLNPEDTAVYYCAADPYCVKYRYGDDYWGQGTQVTVSS | high polyreactivity
26 | QVQLVESGGGLVQAGGSLRLICAASGSIFGSSAMGWYRQAPGKERSTYYADSVKGRFTISRDNAKNTVYLQMNSLKPEDTAVYYCAADTYGYQGSAGGHWGQGTQVTVSS | low polyreactivity
27 | QVQLVESGGGLVQAGGSLRLSCAASGRTFLYYAMGWYRQAPGKERELVAGITSGGSTNYADSVKGRFTISRDNAKNTVYLQMNSLKPEATAVYYCAVDQGYSRTADVNYDYWGQGTQVTVSS | low polyreactivity
28 | QVQLVESGGGLVQAGGSLRITCAASGSIFGTNAMGWYRQAPGKERELVAAIDGGSTTYYADCVKGRFTISRDNAKNTVYLQMNSLKPEDTAVYYCAADGTRYLNYEGYAGYEYWGQGTQETVSS | low polyreactivity
29 | QVQLVESGGGLVQAGGSLRLSCAASGITFWLYAMGWYRQAPGKERELVAAISYSGGSTYYADSVKGRFTISRDNAKNTVYLQMNSLKPEETEVYYCNTGSRYRPNRRYGYWGQGTQVTVSS | high polyreactivity
30 | QVQLVESGGGLVQAGGRLRLSCAASGRIFKDNAMGWYRQAPGKERELVAAISSGASTSYADSVKGRFTISRDNAKNTVYLQMNSLKPEDTAVYYCNRGGDLYYPGWLFDYWGQGTQVTVSS | low polyreactivity
31 | QVELQVSGGGLVRAGGSLRLSCAASGNIFDADIMGWYRQAPGKERELVASITGGGSTSYAESAKGRFTISRDNAKNAVYLQMNSLKPEDTAVYYCARDSWWYHHYDYWGQGTQVTVSS | low polyreactivity
32 | QVQLVESGGGLVHAGGSLRLSCAASGITFYEYTMGWYRQAPGKERELVADIDFSGDSTYYSDSVKGRFTISRDYAKNTVYLQMNSLKPEDTAVYYCAVEIIYWWYIYEYWGQGSQVTVSS | high polyreactivity
33 | QVQLVESVGGLVQAGGSLRLSCAASGRTFSFYAMGRYRQRQGKESELVAGIDGNDGSTYYADSVKGRFTISRDNAKNTVYIQMNSLKPEDTAVYYCNAEKWTGQYCCYYRMYYYWGQGTQVTVSS | low polyreactivity
34 | QDQLVESGGGLVQAGGSLRLSCAASAFTLSPNSMGWDRQAPGKEREFVAAISQRGGSTYYADSVKGRFTISRDNAKNTVYLQMNSLKPEDSAVYYCARDTKYKYDYWGQGTQVTVSS | low polyreactivity
35 | QVQLVESGGGLVQAGGSLRLSCAASGFTFSHNPMGWYRQAPGKERELVATITRGGGNTYYADSVKGRCTISRDNAKNTVYLQMNSLKPEDTAVYYCSAERYKRMDYWGQGTQVTVSS | low polyreactivity
36 | QVQLVETGGGLVQAGGSIRLTCAASGLTYTGNAIVWSRQAPGKEMECVAAIRWSAGSTYYADSVKGRFTISRDNAKNTVYLQMNSLKPEDTAVYYCNAALNVSGHYPNDYWGQGTQVTVSS | low polyreactivity
37 | QVQLVESGGGLVQAGGSLRLSCAASGFIFRSNAMGLYRQAPGKEREFVAAISSRGGSTTYEDSVKGRFTISRDNAKNTVYLQMNSLKPEDTAVYYCARDWYYYPQYRQRYYYWGQGTQVTVSS | high polyreactivity
38 | QVQLVESGGGLVQAGGSLRLSCAASGFTFTSNAMGWYRQAPGKERELVAAISRSGGRTYYADSVKGRFTISRDNAKNTVYLQLNSLKPEDTAVYYCNVRAEKRSYELYAYDYWGQGTQVTVSS | high polyreactivity
39 | QGQLVESGGGLVQAGGSLRLSCAASGFTFVYNAMGWYRQAPGKERELVAAITSGGNTYYADSVKGRFTISRDNAKNTVYLQMNSLKPEDTAVYYCAALSYYRFSQEDDYWGQGTQVTVSS | high polyreactivity
40 | QVQLVESGGGLVQAGGSLRLSCAASGRNFGNYAMGGYRQAPGKERELVAAISNGGSTNYADSVKGRVTISRDNAKNTVYFQMNSLKPEDTAVYYCNADQWAVIWGYLVLDFYYWGQGTQVPVSS | low polyreactivity
41 | QVQLVESGGGLVQAGGSLRLSCAASGRIFRYYAMGWYRQAPGKERELVAAITRGGSTNYADSVKGRFTISRDNAKNTVYLQMNSLIPEDTAVYYCNKYPYFVYGDYGYWGQGTQVTVSS | high polyreactivity
42 | QVQLVESGGGLVQAGGSLRLSCAASGIIFWTYTMGWYRQAPGKERELVAAISSGGSTKYADSVKGRFTISRDNAKNTVYLQMNSLKPEDTAVYYCAAYSAWYGYDYWGQGTQVTVSS | low polyreactivity
43 | QVQLVETGGGLVQAGGSLRLSSAGSGSISYAYAMGWYRQARGKEREFVAAITDSGGSTYYADSVKGRFTISRDNAKNTVYSQMNSLKPEDTAVYYCAAGGPWWSGYYYWGQGTQVTVSS | low polyreactivity
